Experimental data as given in PMC4293345.
Read-outs that look alike come from different tables or passages of the source.

Key:
[1] = biological target: MBP-tagged NCS-1 (neuronal calcium sensor-1) (UniProt P62166); assay: pull-down
[2] = biological target: MBP-tagged NCS-1 (neuronal calcium sensor-1) (UniProt P62166); assay: pull-down; remark: listed apart in the source

MBP-tagged NCS-1 (neuronal calcium sensor-1), sequence (P62166 whole entry): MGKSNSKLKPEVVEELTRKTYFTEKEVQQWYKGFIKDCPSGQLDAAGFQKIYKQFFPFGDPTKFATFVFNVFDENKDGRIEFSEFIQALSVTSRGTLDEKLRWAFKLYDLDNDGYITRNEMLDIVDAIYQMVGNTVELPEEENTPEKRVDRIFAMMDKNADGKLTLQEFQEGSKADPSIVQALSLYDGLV

GST-tagged IM-AA mutant IQ domain of CaV2.1 (from UniProt P54282 1848-1964) (domain or fragment)
relative binding (ratio of IMAA-GST to NCS-1-MBP) [1]: 0.29
relative binding (ratio of IMAA-GST to NCS-1-MBP) [2]: 0.24
